Test results: publication doi:10.1101/2025.08.29.672660

Biological target: HdpA^S-LEHHHHHH (HdpA devoid of its N-terminal hydrophobic segment, His-tagged) (Helicobacter pylori strain 26695)
Experiment: crystal structure

LhiA^S-SAHHHHHH (LhiA devoid of its predicted signal peptide and lipidated cysteine, His-tagged) (natural protein)
stoichiometry N: 1
